Test [1] has as its target T1, GIPR-ECD-laFc (an alpaca Fc-fused human GIPR extracellular region fragment) (human, UniProt P48546 22-138).
T1 construct: extracellular domain; not shown: alpaca Fc
T1 sequence (looked up): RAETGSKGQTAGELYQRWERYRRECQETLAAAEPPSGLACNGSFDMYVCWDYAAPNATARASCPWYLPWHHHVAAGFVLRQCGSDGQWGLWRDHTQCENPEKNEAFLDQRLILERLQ
Kind of test: phage supernatant ELISA, coated antigen, anti-HA HRP, A450-A650.

In test [2] the target is T2, Control-2 (C2), a laFc-containing fusion protein.
T2 construct: Negative panning and ELISA control
Kind of test: phage supernatant ELISA, coated control protein, anti-HA HRP, A450-A650.

The target in test [3] is T3, Control-1 (C1), a muFc-containing fusion protein.
T3 construct: Negative panning and ELISA control
The test is described as above.

For test [4], the target named is T4, human GIPR expressed on HEK293T cells (human, UniProt P48546 22-466).
T4 construct: whole, on cells; Two cell lines are used (293T-GIPR; 293T-GIPRFL-GFP-PURO-5, stably expressing full-length human GIPR on the membrane); both are treated as human GIPR on cells; also called 293T-GIPR; 293T-GIPRFL-GFP-PURO-5
T4 sequence (looked up): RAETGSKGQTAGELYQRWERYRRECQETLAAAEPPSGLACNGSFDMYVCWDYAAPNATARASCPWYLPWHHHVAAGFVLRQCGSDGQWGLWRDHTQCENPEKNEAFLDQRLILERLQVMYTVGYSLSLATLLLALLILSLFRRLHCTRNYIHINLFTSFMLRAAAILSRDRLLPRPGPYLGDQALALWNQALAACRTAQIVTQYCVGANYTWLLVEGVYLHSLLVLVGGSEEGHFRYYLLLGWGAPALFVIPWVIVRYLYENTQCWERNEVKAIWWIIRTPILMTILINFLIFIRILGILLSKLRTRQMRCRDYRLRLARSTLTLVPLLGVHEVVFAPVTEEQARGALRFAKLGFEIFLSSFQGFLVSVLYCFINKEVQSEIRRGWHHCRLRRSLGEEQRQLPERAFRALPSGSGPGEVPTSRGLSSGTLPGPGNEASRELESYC
The experiment in a line: cell binding on 293T-GIPR cells, anti-human SULFO-TAG secondary antibody, MSD read-out plotted as MFI.

Test [5] has as its target T4, human GIPR expressed on HEK293T cells. Kind of test: cell-based or functional assay.
For test [6], the target named is T5, GIPR-ECD-chis (a his tag-fused human GIPR extracellular region fragment) (human, UniProt P48546 22-138, limits assumed).
T5 construct: extracellular domain; not shown: his tag
T5 sequence (looked up): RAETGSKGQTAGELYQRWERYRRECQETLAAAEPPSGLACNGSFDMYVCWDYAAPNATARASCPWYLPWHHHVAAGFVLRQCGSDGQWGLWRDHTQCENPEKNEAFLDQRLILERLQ
The experiment in a line: BLI, antibody on AHC sensor, GIPR-ECD-chis in solution. In general terms: BLI is a label-free optical method that tracks binding on a fibre tip over time.

B1: iGI-27 (VHH)
VHH: QVQLVESGGALVQTGGSLRLFCAASGDTICITNMNWYRQAPGKGREFVAAITRSGRTLYADYVKGRFTISRDNARNTMSLQMNSMTSEDTAVYYCNADQNQTICAAEPSAWGRGTQVTVSS
notes: Tested as supernatant of a helper-phage-rescued clone (pComb3XSS), detected by anti-HA tag
B1: the results for the OD value in test [1], in test [2] and in test [3] were 2.23 OD, 0.023 OD and 0.018 OD, respectively.

B2: iGI-9 (VHH)
VHH: QVQLVESGGGLVQPGGSLRLSCETSKILFSSAYTMGWYRQAPGKQRELVATITTDYITNYVDSVKGRFTISRDNAKNTVYLQMNTLKLEDTAVYYCNARWGRDYWGQGTQVTVSS
notes: as for B1
For B2, the OD value was 2.21 OD in test [1], 0.028 OD in test [2] and 0.018 OD in test [3].

B3: iGI-51 (VHH)
VHH: QVQLVESGGKLVQAGGSLRLDCVASGRTFSYYAIGWYRQAPGKEREFVAAIRASGGSTYYADSVKGRFTASRDNAKNTGYLQMNSLKPEDTAVYFCYAATIVPITPSTHGYWGQGTQVTVSS
notes: as for B1
Consider B3, for which the OD value is 2.17 OD in test [1], 0.027 OD in test [2] and 0.042 OD in test [3].

B4: Maridebart (antibody, V domains shown)
VH: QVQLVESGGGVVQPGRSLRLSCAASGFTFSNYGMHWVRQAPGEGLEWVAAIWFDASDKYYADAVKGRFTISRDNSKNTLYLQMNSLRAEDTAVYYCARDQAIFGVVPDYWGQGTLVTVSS
VL: EIVMTQSPATLSVSPGERATLSCRASQSVSSNLAWYQQKPGQAPRLLIYGAATRATGIPARVSGSGSGTEFTLTISSLQSEDFAVYYCQQYNNWPLTFGGGTKVEIK
As a reminder, the EC50 is the concentration giving half of the maximal effect. In general, Kd refers to a measure of binding affinity in units of concentration. What is called koff is the first-order rate constant of dissociation. Read a low koff as a long-lived complex. The term kon denotes the rate constant with which the complex forms. For the molecule B4, the EC50 in test [4] stood at 1.18 nM. In addition, the “EC50 of the inhibition rate (%) of GIP-induced cAMP expression in 293T-GIPR cells” value in test [5] amounted to 0.351 µg/mL. Further, in test [6], the Kd stood at 16.3 nM, the koff turned out to be 0.00222 s⁻¹ and the kon is 136000 M⁻¹ s⁻¹.

B5: iGI-1198 (VHH)
VHH: QVQLQESGGGLVQPGGSLRLSCVASGSGFSIVAMGWYRQTPGKQRELVAAITSGGNTNYADSVKGRFTISRDNAKNTIYLQMNSLKPEDTAVYYCNADPGVVAGPYAGMDFWGKGTQVTVSS
notes: as for B1
As for B5, the OD value in test [1] amounted to 1.95 OD; in test [2], 0.027 OD.

B6: iGI-72 (VHH)
VHH: QVQLVESGGGLVQPGGSLRLSCAASRYTLDYYAIGWFRQAPGKEREGVSCINSKDGSTYYADSVKGRFTISKDNAKNTVYLQMNSLKPEDTAVYYCAAGYDPWSGIPPVQAMCVMGYDYWGQGTQVTVSS
notes: as for B1
As to B6, the OD value amounted to 2.2 OD in test [1], 0.077 OD in test [2] and 0.019 OD in test [3].

B7: iGI-44 (VHH)
VHH: QVQLVESGGGLVQAGGSLKLSCAASGRTFSSKAMGWFRQAPGKEREFVAAINWSGDRTYHVNSIKGRFTISRDNAKNTVYLQMNSLKPEDTAVYYCTADRRDRATIPFQWHYWGQGTQVTVSS
notes: as for B1
For the molecule B7, the OD value in test [1] was 2.31 OD; in test [2], 0.023 OD; in test [3], 0.018 OD.

For the origin of these results see patent publication US20260176344A1 (SUZHOU ALPHAMAB, published 2026).
